Where a chain is given by its changes, count along the chain named.
T1: Mouse nectin-4 ECD-6His (TNT-250) (mouse, UniProt Q8R007 31-347)
T1 construct: entry includes the 6His tag; also called mouse nectin-4-LCD
T1 sequence: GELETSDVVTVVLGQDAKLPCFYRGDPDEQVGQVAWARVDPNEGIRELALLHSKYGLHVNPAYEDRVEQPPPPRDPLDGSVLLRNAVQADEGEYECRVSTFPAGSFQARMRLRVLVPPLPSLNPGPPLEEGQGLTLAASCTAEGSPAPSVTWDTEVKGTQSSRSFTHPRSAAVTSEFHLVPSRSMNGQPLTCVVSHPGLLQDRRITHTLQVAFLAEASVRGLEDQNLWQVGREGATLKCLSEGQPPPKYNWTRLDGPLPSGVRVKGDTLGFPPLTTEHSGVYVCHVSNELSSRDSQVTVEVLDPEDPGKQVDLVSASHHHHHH

T2: Human nectin-4 ECD-6His (TNT-175) (human, UniProt Q96NY8 32-349)
T2 construct: the entry holds the extracellular domain with the C-terminal 6His tag
T2 sequence: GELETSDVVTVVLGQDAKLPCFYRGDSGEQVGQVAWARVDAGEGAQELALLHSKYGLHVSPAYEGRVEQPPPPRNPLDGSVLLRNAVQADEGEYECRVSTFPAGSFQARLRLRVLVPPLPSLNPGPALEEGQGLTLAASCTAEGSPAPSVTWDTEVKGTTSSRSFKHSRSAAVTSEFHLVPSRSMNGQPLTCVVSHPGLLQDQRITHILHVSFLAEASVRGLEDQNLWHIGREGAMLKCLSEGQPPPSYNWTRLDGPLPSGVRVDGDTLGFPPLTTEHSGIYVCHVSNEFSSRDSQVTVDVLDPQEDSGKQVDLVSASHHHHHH

T3: Human nectin-4-IgV-6His (TNT-252) (human, UniProt Q96NY8 32-147)
T3 construct: entry includes the 6His tag
T3 sequence: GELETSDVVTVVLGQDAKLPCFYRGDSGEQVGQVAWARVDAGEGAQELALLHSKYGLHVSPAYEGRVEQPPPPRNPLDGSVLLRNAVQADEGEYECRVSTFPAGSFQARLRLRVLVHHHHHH

T4: Cyno nectin-4 ECD-6His (TNT-255) (cynomolgus, UniProt Q96NY8 32-349 (human entry))
T4 construct: entry includes the 6His tag
T4 chain: T2 sequence with V39A, I230V

B1: TNT-336 (antibody, V domains shown)
VH: KVQLVESGGGLVQPGGSLRLSCEASGFTFSNYWMHWVRQVPGEGLVWVSRLNNGGTSTRYADSVKSRFTISRDNAKNTLYLQMNSLRAEDTAVYYCVRDWYFDLWGRGTLVTVSS
VL: QLVLTQSPSASASLGASVKLTCTLSSGHSFYAIAWHQQQPEKGPRYLMQVNSNGSHNKGDGIPDRFSGSSSGAERYLTISSLQSEDEADYYCQSWDTDIWVFGGGTKLTVLG
notes: human IgG1
B2: TNT-335 (antibody, V domains shown)
VH: QVQLQESGPGLVKPSETLSLTCTVSGGSISSYYWSWIRQPPGKGLEWIGYIHYSGISNYNPSLKSRVAISLDTSNNHFSLKLTSLTAADTAVYFCARGSYWFDPWGQGTLVTVSS
VL: QSVLTQPPSASGTPGQRVTISCSGSSSNIGSDYIYWYQQLPGTAPKLLIYSNHQRPSGVPDRFSGSKSGTSASLAISGLRSEDEADYYCAAWEDSLSGPIFGGGTKLTVLG
notes: human IgG1
B3: TNT-337 (antibody, V domains shown)
VH: EVQLVESGGGLVQPGGSLRLSCAASGFTFSNYDMSWVRQAPGKGLEWVATISSGGSYTYYVDSVKGRFTISRDNAKNSLYLQMNSLRAEDTAVYYCARQELGSYYAMDYWGQGTTVTVSS
VL: DIVMTQTPLSLPVTPGEPASISCRSSQSIVHSNANTYLEWYLQKPGQSPQLLIYKVSNRFSGVPDRFSGSGSGTDFTLKISRVEAEDVGVYYCFQGSHVPYTFGGGTKVEIKR
notes: human IgG1
B4: TNT-333 (antibody, V domains shown)
VH: QVQLQESGPGLVKPSETLSLTCTISGGSISSYYWSWIRQPPGKGLEWIGYIFYIGNTNYYPSLKSRVTISVDASKNQFSLKLSSVTAADTAVYYCARSYPYWYFDLWGRGTLVTVSS
VL: QSVLTQPPSVSAAPGQKVTISCSGSSSNIGNNYVSWYQQLPGTAPKLLISDNNKRPSGIPDRFSGSKSGTSATLGITGLQTGDEADYYCGTWDSSLSAGVVFGGGTKLTVLG
notes: human IgG1
B5: TNT-334 (antibody, V domains shown)
VH: EVQLVESGGGLVQPGGSLRLSCAASGFTFSRYWMHWVRQAPGKGLVWVSRINSDGSSSNYADSVKGRFTFSRDNAKNTLYLQMNSLRAEDTAVYFCVRDNWYFDYWGQGTLVTVSS
VL: EIVMTQSPATLPVSPGERATLSCRASQSVSINLAWYQQKPGQAPRLLIYGVSTRATGIPARFSGSGSGTEFTLTISGLQSEDFAVYYCQQYNNWPRTFGQGTKVEIKR
notes: human IgG1
B6: TNT-332 (antibody, V domains shown)
VH: QVQLVQSGAEAKKPGASVRVSCKTSGYTFTNYYIHWVRQAPGQGLEWMGIINPTLDSTSYAQKFQDRVTMTRDTSTNTDYMDLSSLRFEDTAVYYCARSAGFDAFDIWGQGTMVTVSS
VL: DIQLTQSPSFLSASVGDKVTITCRASQGINSYLAWYQQKPGKAPKLLIYSASTLQGGVPSRFSGSGSGTEFTLTISNLQPADFATYCCQQLNSYPFTFGPGTKVDIKR
notes: human IgG1

Molecular target: T1, Mouse nectin-4 ECD-6His (TNT-250)
Experiment: SPR Biacore 8K, mAb on protein A
Description: (§1) The running buffer was 10 mM HEPES, pH 7.4, 150 mM NaCl, 3 mM EDTA, 0.05% (v/v) Surfactant P20 (HBS-EP+). […] The nectin-4 analytes were injected in either single-cycle kinetics or multi-cycle kinetics mode at nominal starting concentrations of 300 nM or 900 nM with 3-fold serial dilutions. Association times were monitored for 120 s, and dissociation times were monitored 1800 s at 30 μL/min flow rate. The surfaces were regenerated with 10 mM glycine at pH1.7 or 75 mM phosphoric acid at pH1.6 for two pulses of 15 s at 30 μL/min flow rate.
(§2) The data were processed and analyzed with Biacore 8K Evaluation Software Version 3.0.12.15655 (Cytiva, Global Life Sciences Solutions USA LLC, Marlborough, MA). […] The responses from the nearest buffer blank injection were then subtracted from the reference subtracted data (2-1) to yield double-referenced data. These double-reference data were fit to a simple 1:1 Langmuir binding model with mass transport to determine the apparent association (ka) and dissociation rate constants (kd). The apparent equilibrium dissociation constant or affinity constant was then calculated based on their ratio as (KD=kd/ka).

Row | Binder | binding result | Kd
1 | B1 | no binding (tested: up to 300 or 900 nM analyte) | 
2 | B2 | no binding (tested: up to 300 or 900 nM analyte) | 
3 | B3 |  | 318 nM
4 | B4 | no binding (tested: up to 300 or 900 nM analyte) | 
5 | B5 | no binding (tested: up to 300 or 900 nM analyte) | 
6 | B6 | no binding (tested: up to 300 or 900 nM analyte) | 

Molecular target: T2, Human nectin-4 ECD-6His (TNT-175)
Experiment: SPR Biacore 8K, mAb on protein A
Description: as §1, §2

Row | Binder | Kd
7 | B1 | 111 nM
8 | B2 | 1.83 nM
9 | B3 | 217 nM
10 | B4 | 6.18 nM
11 | B5 | 71.5 nM
12 | B6 | 7.6 nM

Molecular target: T3, Human nectin-4-IgV-6His (TNT-252)
Experiment: SPR Biacore 8K, mAb on protein A
Description: as §1, §2

Row | Binder | Kd | binding result
13 | B1 | 104 nM | 
14 | B2 | 0.985 nM | 
15 | B3 | 195 nM | 
16 | B4 |  | no binding (tested: up to 300 or 900 nM analyte)
17 | B5 | 46.3 nM | 
18 | B6 |  | no binding (tested: up to 300 or 900 nM analyte)

Molecular target: T4, Cyno nectin-4 ECD-6His (TNT-255)
Experiment: SPR Biacore 8K, mAb on protein A
Description: as §1, §2

Row | Binder | binding result | Kd
19 | B1 | no binding (tested: up to 300 or 900 nM analyte) | 
20 | B2 |  | 1.28 nM
21 | B3 |  | 286 nM
22 | B4 |  | 7.43 nM
23 | B5 |  | 95.3 nM
24 | B6 |  | 7.2 nM
